Tests used:
[1] = molecular target: T1, human CTGF (antigen of the Biacore assays) (human, UniProt P29279 27-349); test: Biacore, CTGF immobilised, antibody 150 µg/ml then 50 nM TGF-β1 (competitor TGF-β1)
T1 construct: also called antigen human CTGF; human CTGF protein
T1 sequence (looked up): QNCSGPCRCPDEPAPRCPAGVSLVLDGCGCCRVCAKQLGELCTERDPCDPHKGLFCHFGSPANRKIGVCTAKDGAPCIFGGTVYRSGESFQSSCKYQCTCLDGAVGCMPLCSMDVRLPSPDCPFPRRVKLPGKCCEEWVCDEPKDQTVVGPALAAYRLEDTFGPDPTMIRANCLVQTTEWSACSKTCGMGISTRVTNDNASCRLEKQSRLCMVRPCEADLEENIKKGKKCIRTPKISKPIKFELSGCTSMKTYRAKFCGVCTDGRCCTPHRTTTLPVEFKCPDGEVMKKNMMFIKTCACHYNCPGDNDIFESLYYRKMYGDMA
Experimental: First, the antigen human CTGF was immobilized onto a CMS biosensor chip (Cat. # BR-1005-30, GE) by amino coupling, with an immobilization level of 1500 RU, and then a high concentration of CTGF antibody (150 μg/ml) was allowed to flow through the surface of the chip for 150 s; 50 nM TGF-β1 protein was injected for 120 s, and the reaction signals were detected in real time with the Biacore T200 instrument to generate a binding and dissociation curve. After the dissociation was completed in each of the experimental cycles, the biosensor chip was washed and regenerated with regeneration buffer.
The resulting experimental data were statistically analyzed with GE Biacore T200 Evaluation version 3.0 software.

[2] = molecular target: T1, human CTGF (antigen of the Biacore …); test: Biacore, antibody captured on Protein A, CTGF in flow, 1:1 fit
How it was run: (§1)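 Antibodies captured on a Protein A chip, with human or mouse CTGF flowed over in HBS-EP running buffer; association and dissociation recorded in real time. Surface regenerated with glycine-HCl pH 1.5 between cycles; kinetics fitted to a 1:1 model.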

[3] = molecular target: T2, Cynomolgus CTGF-Fc (fusion protein of cynomolgus CTGF coding region with Fc) (cynomolgus); test: ELISA, cyno-CTGF-Fc captured by anti-mFc
T2 construct: also called cyno-CTGF-mFc protein; cyno-CTGF protein with Fc tag
Experimental: The binding activity of anti-monkey CTGF antibody to monkey CTGF protein was tested by ELISA assay. A 96-well microtiter plate was directly coated with anti-mFc protein, and then the cyno-CTGF protein with Fc tag was bound to the plate, and then the antibody was added. The signal strength upon the addition of the antibody was used to determine the binding activity of the antibody to cyno-CTGF. The specific experimental procedures were as follows:
The anti-mFc Protein (Sigma, Cat No. M4280) was diluted with PBS, pH 7.4 (Shanghai Yuanpei, Cat No. B320) buffer to a concentration of 2 μg/ml, which was added into the 96-well microtiter plate (Corning, Cat No. CLS3590-100EA) at 50 μl/well, and incubated in an incubator at 37° C. for 2 hours. The liquid was removed, 250 μl/well blocking solution (5% skim milk (BD skim milk, Cat No.232100) diluted in PBS) was added, and incubated in an incubator at 37° C. for 3 hours or at 4° C. overnight (16-18 hours) for blocking. After the blocking was finished, the blocking solution was removed, the plate was washed for 3 times with PBST buffer (PBS containing 0.1% Tween-20, pH 7.4), 50 μl of 1 μg/ml cyno-CTGF-mFc protein was added into each well, incubated in an incubator at 37° C. for 1 hour, and then the plate was washed for 3 times with PBST buffer (PBS containing 0.1% Tween-20, pH 7.4). 50 μl/well of various concentrations of each of the test antibodies (antibodies purified from hybridoma or humanized antibodies) diluted with sample dilution solution were added, and incubated in an incubator at 37° C. for 1 hours. After the incubation was finished, the plate was washed for 3 times with PBST, 50 μl/well of HRP-labeled goat anti-mouse secondary antibody (Jackson Immuno Research, Cat No. 115-035-003) or goat anti-human secondary antibody (Jackson Immuno Research, Cat No. 109-035-003) diluted with sample dilution solution was added, and incubated at 37° C. for 1 hour. The plate was washed for 5 times with PBST, 50 μl/well of TMB chromogenic substrate (KPL, Cat No. 52-00-03) was added, incubated at room temperature for 5-10 min, and 50 μl/well of 1 M H₂SO₄ was added to stop the reaction. The absorbance value was read by a microplate reader (Molecular Devices, VERSA max) at a wavelength of 450 nm, and the data was analyzed with GraphPad Prism 5. The binding of CTGF antibody to cyno CTGF protein was calculated as EC50 value.

[4] = molecular target: T3, mouse CTGF (antigen of the Biacore assay) (mouse, UniProt P29268 26-348); test: Biacore, antibody captured on Protein A, mouse CTGF in flow, 1:1 fit
T3 construct: also called mouse CTGF protein
T3 sequence (looked up): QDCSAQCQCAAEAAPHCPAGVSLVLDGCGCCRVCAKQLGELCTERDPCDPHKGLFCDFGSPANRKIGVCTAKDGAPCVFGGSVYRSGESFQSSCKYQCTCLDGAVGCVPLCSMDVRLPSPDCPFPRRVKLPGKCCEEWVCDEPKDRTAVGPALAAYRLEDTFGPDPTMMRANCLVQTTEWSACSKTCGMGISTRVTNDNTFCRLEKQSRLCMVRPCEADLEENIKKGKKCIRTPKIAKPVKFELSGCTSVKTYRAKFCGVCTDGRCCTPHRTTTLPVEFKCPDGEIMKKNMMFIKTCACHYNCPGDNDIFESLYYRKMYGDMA
How it was run: as §1

T2 sequence (chain, as listed by the source limits assumed): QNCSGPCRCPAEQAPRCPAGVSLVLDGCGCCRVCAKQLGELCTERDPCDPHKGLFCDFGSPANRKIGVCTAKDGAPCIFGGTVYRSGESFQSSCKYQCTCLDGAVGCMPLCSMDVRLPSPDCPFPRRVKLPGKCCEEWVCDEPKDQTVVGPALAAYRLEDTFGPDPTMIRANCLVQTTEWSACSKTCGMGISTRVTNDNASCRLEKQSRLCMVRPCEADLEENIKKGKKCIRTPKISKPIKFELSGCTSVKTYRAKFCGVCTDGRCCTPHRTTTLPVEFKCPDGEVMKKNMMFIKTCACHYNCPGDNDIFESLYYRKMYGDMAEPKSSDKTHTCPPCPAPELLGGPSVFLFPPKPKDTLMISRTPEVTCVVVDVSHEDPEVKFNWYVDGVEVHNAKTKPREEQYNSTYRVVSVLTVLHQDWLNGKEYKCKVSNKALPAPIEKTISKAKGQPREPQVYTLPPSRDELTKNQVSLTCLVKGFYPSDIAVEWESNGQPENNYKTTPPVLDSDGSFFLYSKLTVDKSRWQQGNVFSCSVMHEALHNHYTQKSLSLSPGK

B1: Hu147-11wk (antibody, human IgG1, kappa, V domains shown)
VH: EVQLVESGGGLVQPGGSLRLSCAASGFTFSTYAMNWVRQAPGKGLEWVGRIRTKSNNYATYYADSVKDRFTISRDDSKNSLYLQMNSLKTEDTAVYYCVETGFAYWDQGTLVTVSS
VL: EIVLTQSPATLSLSPGERATLSCSASSSVSYMHWFQQKPGQSPRLLIYSTSNLASGIPARFSGSGSGTDYTLTISSLEPEDFAVYYCQQRSSYPLTFGQGTKLEIKR
Function-blocking percentage (%) [1]: 50.8% | Kd [2]: 1.13 nM | koff [2]: 0.0336 s⁻¹ | kon [2]: 2.98e+07 M⁻¹ s⁻¹ | EC50 [3]: 0.052 nM | Kd [4]: 3.11 nM | koff [4]: 0.374 s⁻¹ | kon [4]: 1.2e+08 M⁻¹ s⁻¹

B2: Hu147-12wk (antibody, human IgG1, kappa, V domains shown)
VH: EVQLVESGGGLVQPGGSLRLSCAASGFTFSTYAMNWVRQAPGKGLEWVGRIRTKSNNYATYYADSVKDRFTISRDDSKNSLYLQMNSLKTEDTAVYYCVETGFAYWDQGTLVTVSS
VL: EIVLTQSPATLSLSPGERATLSCSASSSVSYMHWFQQKPGQSPKLLIYSTSNLASGIPARFSGSGSGTDYTLTISSLEPEDFAVYYCQQRSSYPLTFGQGTKLEIKR
Function-blocking percentage (%) [1]: 51.6% | Kd [2]: 0.969 nM | koff [2]: 0.033 s⁻¹ | kon [2]: 3.41e+07 M⁻¹ s⁻¹ | EC50 [3]: 0.062 nM | Kd [4]: 3.09 nM | koff [4]: 0.116 s⁻¹ | kon [4]: 3.75e+07 M⁻¹ s⁻¹

B3: Hu147-34wk (antibody, human IgG1, kappa, V domains shown)
VH: EVQLVESGGGLVQPGGSLRLSCAASGFSFNTYAMNWVRQAPGKGLEWVARIRTKSNNYATYYADSVKDRFTISRDDSESSLYLQMNSLKTEDTAVYYCVETGFAYWDQGTLVTVSS
VL: DIQMTQSPSSLSASVGDRVTITCSASSSVSYMHWFQQKPGKSPKLLIYSTSNLASGVPSRFSGSGSGTDYTLTISSLQPEDFATYYCQQRSSYPLTFGQGTKLEIKR
Function-blocking percentage (%) [1]: 56.2% | Kd [2]: 1.05 nM | koff [2]: 0.0155 s⁻¹ | kon [2]: 1.47e+07 M⁻¹ s⁻¹ | EC50 [3]: 0.144 nM

B4: Hu147-23wk (antibody, human IgG1, kappa, V domains shown)
VH: EVQLVESGGGLVQPGGSLRLSCAASGFTFNTYAMNWVRQAPGKGLEWVARIRTKSNNYATYYADSVKDRFTISRDDSKNSLYLQMNSLKTEDTAVYYCVETGFAYWDQGTLVTVSS
VL: EIVLTQSPATLSLSPGERATLSCSASSSVSYMHWFQQKPGQSPKLWIYSTSNLASGVPARFSGSGSGTDYTLTISSLEPEDFAVYYCQQRSSYPLTFGQGTKLEIKR
Function-blocking percentage (%) [1]: 54.6% | Kd [2]: 0.818 nM | koff [2]: 0.0112 s⁻¹ | kon [2]: 1.37e+07 M⁻¹ s⁻¹ | EC50 [3]: 0.063 nM | Kd [4]: 2.12 nM | koff [4]: 0.173 s⁻¹ | kon [4]: 8.18e+07 M⁻¹ s⁻¹

B5: Hu147-13wk (antibody, human IgG1, kappa, V domains shown)
VH: EVQLVESGGGLVQPGGSLRLSCAASGFTFSTYAMNWVRQAPGKGLEWVGRIRTKSNNYATYYADSVKDRFTISRDDSKNSLYLQMNSLKTEDTAVYYCVETGFAYWDQGTLVTVSS
VL: EIVLTQSPATLSLSPGERATLSCSASSSVSYMHWFQQKPGQSPKLWIYSTSNLASGVPARFSGSGSGTDYTLTISSLEPEDFAVYYCQQRSSYPLTFGQGTKLEIKR
Function-blocking percentage (%) [1]: 53.3% | Kd [2]: 0.808 nM | koff [2]: 0.024 s⁻¹ | kon [2]: 2.97e+07 M⁻¹ s⁻¹ | EC50 [3]: 0.043 nM | Kd [4]: 2.55 nM | koff [4]: 0.146 s⁻¹ | kon [4]: 5.73e+07 M⁻¹ s⁻¹

B6: Hu147-33wk (antibody, human IgG1, kappa, V domains shown)
VH: EVQLVESGGGLVQPGGSLRLSCAASGFSFNTYAMNWVRQAPGKGLEWVARIRTKSNNYATYYADSVKDRFTISRDDSESSLYLQMNSLKTEDTAVYYCVETGFAYWDQGTLVTVSS
VL: EIVLTQSPATLSLSPGERATLSCSASSSVSYMHWFQQKPGQSPKLWIYSTSNLASGVPARFSGSGSGTDYTLTISSLEPEDFAVYYCQQRSSYPLTFGQGTKLEIKR
Function-blocking percentage (%) [1]: 57.3% | Kd [2]: 0.713 nM | koff [2]: 0.0104 s⁻¹ | kon [2]: 1.45e+07 M⁻¹ s⁻¹ | EC50 [3]: 0.044 nM | Kd [4]: 1.93 nM | koff [4]: 0.174 s⁻¹ | kon [4]: 9.01e+07 M⁻¹ s⁻¹

B7: Hu147-32wk (antibody, human IgG1, kappa, V domains shown)
VH: EVQLVESGGGLVQPGGSLRLSCAASGFSFNTYAMNWVRQAPGKGLEWVARIRTKSNNYATYYADSVKDRFTISRDDSESSLYLQMNSLKTEDTAVYYCVETGFAYWDQGTLVTVSS
VL: EIVLTQSPATLSLSPGERATLSCSASSSVSYMHWFQQKPGQSPKLLIYSTSNLASGIPARFSGSGSGTDYTLTISSLEPEDFAVYYCQQRSSYPLTFGQGTKLEIKR
Function-blocking percentage (%) [1]: 55.2% | Kd [2]: 0.91 nM | koff [2]: 0.0133 s⁻¹ | kon [2]: 1.46e+07 M⁻¹ s⁻¹ | EC50 [3]: 0.079 nM | Kd [4]: 2.49 nM | koff [4]: 0.343 s⁻¹ | kon [4]: 1.37e+08 M⁻¹ s⁻¹

B8: Hu147-31wk (antibody, human IgG1, kappa, V domains shown)
VH: EVQLVESGGGLVQPGGSLRLSCAASGFSFNTYAMNWVRQAPGKGLEWVARIRTKSNNYATYYADSVKDRFTISRDDSESSLYLQMNSLKTEDTAVYYCVETGFAYWDQGTLVTVSS
VL: EIVLTQSPATLSLSPGERATLSCSASSSVSYMHWFQQKPGQSPRLLIYSTSNLASGIPARFSGSGSGTDYTLTISSLEPEDFAVYYCQQRSSYPLTFGQGTKLEIKR
Function-blocking percentage (%) [1]: 55% | Kd [2]: 0.894 nM | koff [2]: 0.0159 s⁻¹ | kon [2]: 1.78e+07 M⁻¹ s⁻¹ | EC50 [3]: 0.07 nM | Kd [4]: 2.79 nM | koff [4]: 0.107 s⁻¹ | kon [4]: 3.83e+07 M⁻¹ s⁻¹

B9: Hu164-67wl (antibody, human IgG1, lambda)
heavy: not shown
light: ETVVTQEPSLTVSPGGTVTLTCRSSIGAVTTSNYANWVQQKPGQAFRGLIGGTSNRAPWTPARFSGSLLGGKAALTLSGVQPEDEAEYYCALWYSTHYVFGGGTKLTVLGQPKANPTVTLFPPSSEELQANKATLVCLISDFYPGAVTVAWKADGSPVKAGVETTKPSKQSNNKYAASSYLSLTPEQWKSHRSYSCQVTHEGSTVEKTVAPTEC
Function-blocking percentage (%) [1]: 55.5% | Kd [2]: 0.0379 nM | koff [2]: 0.00196 s⁻¹ | kon [2]: 5.17e+07 M⁻¹ s⁻¹ | EC50 [3]: 0.028 nM | Kd [4]: 0.0184 nM | koff [4]: 0.00117 s⁻¹ | kon [4]: 6.36e+07 M⁻¹ s⁻¹

Source: US20220324953A1 (JIANGSU HENGRUI MEDICINE, published 2022)
